Experiment [1] concerns the target T1, purified recombinant full-length Bax protein (from E. coli BL21 harboring pTYB1-Bax) (human, UniProt Q07812 1-192).
T1 construct: also called recombinant Bax
Description: fluorescence polarization assay, various concentrations of purified recombinant Bax with 40 nM rhodamine-conjugated Humanin peptide. On the technique in general: Polarisation of emitted light reports the rotation of a fluorescent probe.
Description: (§1) In this example, the in vitro binding assay is a fluorescence polarization assay (FPA). For this experiment, full-length Bax protein was produced in bacteria and purified. […] The extent of peptide binding was then monitored by measuring polarization of monochromatic light passed through the sample, where peptide binding to the bulkier protein slows the rate of peptide tumbling in solution, enhancing the polarization effect.
(§2) Fluorescence Polarization Assays were performed as follows. […] Fluorescence polarization was measured using an AnalystTM AD Assay Detection System (LJL Biosystem, Sunnyvale, Calif.).

Experiment [2] deals with Recombinant Bcl-XL protein (UniProt Q07817 1-211). Kind of experiment: fluorescence polarization assay.
Description: as §1, §2
Experiment [3] deals with T2, GFP-HN (Green Fluorescent Protein fused to wild-type, full-length Humanin, cytosolic / nuclear-encoded form) (human, UniProt P42212 1-238 = GFP).
T2 construct: Humanin cDNA in the XhoI/HindIII sites of GFP-C1 (pEGFP-C1), so GFP is N-terminal; also called GFP-HN(N); GFP-Humanin
Kind of experiment: co-immunoprecipitation from HEK293T cells (anti-GFP IP, anti-myc blot).

*: point of attachment. RhodamineB = CCN(CC)c1ccc2c(-c3ccccc3C(=O)*)c3ccc(=[N+](CC)CC)cc-3oc2c1; Ahx = NCCCCCC(=O)O

T1 sequence (Q07812 whole entry): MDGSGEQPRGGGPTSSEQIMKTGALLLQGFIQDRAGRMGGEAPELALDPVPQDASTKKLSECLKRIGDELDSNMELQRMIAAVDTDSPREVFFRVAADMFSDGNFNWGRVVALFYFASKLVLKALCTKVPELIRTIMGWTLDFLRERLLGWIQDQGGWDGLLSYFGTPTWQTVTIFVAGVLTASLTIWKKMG
Recombinant Bcl-XL protein, sequence (Q07817 1-211): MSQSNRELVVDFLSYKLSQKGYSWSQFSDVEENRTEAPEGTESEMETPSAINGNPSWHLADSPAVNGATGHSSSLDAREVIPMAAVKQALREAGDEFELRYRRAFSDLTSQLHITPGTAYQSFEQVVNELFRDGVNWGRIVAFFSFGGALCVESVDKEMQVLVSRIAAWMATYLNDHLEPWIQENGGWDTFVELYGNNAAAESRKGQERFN

B1: rhodamine-conjugated synthetic purified Humanin peptide (peptide)
peptide: {RhodamineB-Ahx}-MAPRGFSCLLLLTSEIDLPVKRRA-NH2
notes: also called rhodamine-HN; rhodamine-conjugated HN peptide
In general, Kd refers to the free concentration of one partner at which half of the binding sites on the other are occupied at equilibrium, for simple one-to-one binding. Turning to B1, the Kd in experiment [1] is approximately 2 nM. Moreover, in experiment [2], the binding result is reported as “no binding”.

B2: myc-tagged Bak (from pcDNA3-myc) (other, UniProt Q16611 1-211, looked up, not shown: small tags and cut ends)
chain: MASGQGPGPPRQECGEPALPSASEEQVAQDTEEVFRSYVFYRHQQEQEAEGVAAPADPEMVTLPLQPSSTMGQVGRQLAIIGDDINRRYDSEFQTMLQHLQPTAENAYEYFTKIATSLFESGINWGRVVALLGFGYRLALHVYQHGLTGFLGQVTRFVVDFMLHHCIARWIAQRGGWVAALNLGNGPILNVLVVLGVVLLGQFVVRRFFKS
For B2, in experiment [3], the binding result is listed as “no binding”.

B3: myc-tagged Bcl-B (from pcDNA3-myc) (other, UniProt Q9HD36 1-204, looked up, not shown: small tags and cut ends)
chain: MVDQLRERTTMADPLRERTELLLADYLGYCAREPGTPEPAPSTPEAAVLRSAAARLRQIHRSFFSAYLGYPGNRFELVALMADSVLSDSPGPTWGRVVTLVTFAGTLLERGPLVTARWKKWGFQPRLKEQEGDVARDCQRLVALLSSRLMGQHRAWLQAQGGWDGFCHFFRTPFPLAFWRKQLVQAFLSCLLTTAFIYLWTRLL
For the molecule B3, in experiment [3], the binding result is on record as “no binding”.

B4: myc-tagged Bok (from pcDNA3-myc) (other, UniProt Q9UMX3 1-212, looked up, not shown: small tags and cut ends)
chain: MEVLRRSSVFAAEIMDAFDRSPTDKELVAQAKALGREYVHARLLRAGLSWSAPERAAPVPGRLAEVCAVLLRLGDELEMIRPSVYRNVARQLHISLQSEPVVTDAFLAVAGHIFSAGITWGKVVSLYAVAAGLAVDCVRQAQPAMVHALVDCLGEFVRKTLATWLRRRGGWTDVLKCVVSTDPGLRSHWLVAALCSFGRFLKAAFFVLLPER
Take B4: the binding result in experiment [3] is “no binding”.

(Values after US20030175819A1 (BURNHAM INSTITUTE, published 2003).)
